Consider 1 variant from IntAct's records for PubMed 16263329.

First the molecules themselves.
B1: Anti-sigma-F factor antagonist RsfB (Mycobacterium tuberculosis (strain ATCC 25618 / P9WGE1 (parent)
chain: MSAPDSITVTVADHNGVAVLSIGGEIDLITAAALEEAIGEVVADNPTALVIDLSAVEFLGSVGLKILAATSEKIGQSVKFGVVARGSVTRRPIHLMGLDKTFRLFSTLHDALTGVRGGRIDR
partner: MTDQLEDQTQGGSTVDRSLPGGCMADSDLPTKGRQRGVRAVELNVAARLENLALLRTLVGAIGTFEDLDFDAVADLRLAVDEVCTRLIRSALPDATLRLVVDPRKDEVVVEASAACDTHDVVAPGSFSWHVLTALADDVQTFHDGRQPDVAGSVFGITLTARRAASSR

The assay covers variants of B1. To be noted: with rsbw_myctu rsbW.
Regarding S61A, the “effect of a mutation on the interaction” value is recorded as “decreasing interaction”.
